# From US20260266848A1, “COMPOSITIONS AND METHODS FOR DIAGNOSING AND TREATING DYSTONIA” (Duke University, priority 2023, published 2026)
# B1: Cul5 (protein, UniProt Q9D5V5 1-780, looked up)
# Cullin-5: MATSNLLKNKGSLQFEDKWDFMHPIVLKLLRQESVTKQQWFDLFSDVHAVCLWDDKGSSKIHQALKEDILEFIKQAQARVLSHQDDTALLKAYIVEWRKFFTQCDILPKPFCQLEVTLLGKQSSNKKSNMEDSIVRKLMLDTWNESIFSNIKNRLQDSAMKLVHAERLGEAFDSQLVIGVRESYVNLCSNPEDKLQIYRDNFEKAYLDSTERFYRTQAPSYLQQNGVQNYMKYADAKLKEEEKRALRYLETRRECNSVEALMECCVNALVTSFKETILAECQGMIKRNETEKLHLMFSLMDKVPNGIEPMLKDLEEHIISAGLADMVAAAETITTDSEKYVEQLLTLFNRFSKLVKEAFQDDPRFLTARDKAYKAVVNDATIFKLELPLKQKGVGLKTQPESKCPELLANYCDMLLRKTPLSKKLTSEEIEAKLKEVLLVLKYVQNKDVFMRYHKAHLTRRLILDISADSEIEENMVEWLREVGMPADYVNKLARMFQDIKVSEDLNQAFKEMHKNNKLALPADSVNIKILNAGAWSRSSEKVFVSLPTELEDLIPEVEEFYKKNHSGRKLHWHHLMSNGIITFKNEVGQYDLEVTTFQLAVLFAWNQRPREKISFENLKLATELPDAELRRTLWSLVAFPKLKRQVLLYDPQVNSPKDFTEGTLFSVNQDFSLIKNAKVQKRGKINLIGRLQLTTERMREEENEGIVQLRILRTQEAIIQIMKMRKKISNAQLQTELVEILKNMFLPQKKMIKEQMEWLIEHRYIRRDEADINTFIYMA
# B2: Exoc4 (protein, UniProt O35382 2-975, looked up)
# Exocyst complex component 4: AAEAAGGKYRSTVSKSKDPSGLLISVIRTLSTSDDVEDRENEKGRLEEAYEKCDRDLDELIVQHYTELTTAIRTYQSITERITNSRNKIKQVKENLLSCKMLLHCKRDELRKLWIEGIEHKHVLNLLDEIENIKQVPQKLEQCMASKHYLSATDMLVSAVESLEGPLLQVEGLSDLRLELHSKKMNLHLVLIEELHRHLYIKSTSRVVQRNKEKGKMSSHGKDPSPGPLIDVSNIPTPRKFLDASQYSAAGGSSVREMNLQDVKEDLECDPEENSTLFMGILIQGLARLKKIPETVKAIKERLEQELKQIVKRSTTQVADSAYQRGESLTVDNQPRLLLELLELLFDKFNAVATAHSVVLGYLQDSVGTQLTQQEEIKLYDMADVWVKIQDVLQMLLTEYLDMKNTRTASEPSAQLSYASTGREFAAFFAKKKPQRPKNSLFKFESSSHAISMSAYLREQRRELYSRSGELQGGPDDNLIEGGGTKFVCKPGARNITVIFHPLLRFIQEIEHALGLGPAKQCPLREFLTVYIKSIFLNQVLAEINKEIEGVTKTSDPLKILANADTMKVLGVQRPLLQSTIIVEKTVQDLMNLMHDLSAYSDQFLNMVCVKLQEYKDTCSTAYRGIVQSEEKLVISASWAKDDDISRLLKSLPNWTNMAQPKQLRPKREEEEDFIRAAFGKESEVLIGNLGDKLIPPQDILRDVSDLKALANMHESLEWLAGRTKSAFSNLSTSQMLSPAQESHVNMDLPPVSEQIMQTLSELAKTFQDMADRCLLVLHLEVRVHCFHYLIPLAKEGNYAIVANVESMDYDPLVVKLNKDISAMEEAMSASLQQHKFQYIFEGLGHLISCILINGAQYFRRISESGIKKMCRNIFVLQQNLTNITMSREADLDFARQYYEMLYNTADELLNLVVDQGVKYTELEYIHALTLLHRSQTGVGDQTTQNTRLQRLKEIICEQAAIKQATKDKKITTV
# B3: Canx (protein, UniProt P35564 21-591, looked up)
# Calnexin: HDGHDDDAIDIEDDLDDVIEEVEDSKSKSDASTPPSPKVTYKAPVPTGEVYFADSFDRGSLSGWILSKAKKDDTDDEIAKYDGKWEVDEMKETKLPGDKGLVLMSRAKHHAISAKLNKPFLFDTKPLIVQYEVNFQNGIECGGAYVKLLSKTAELSLDQFHDKTPYTIMFGPDKCGEDYKLHFIFRHKNPKTGVYEEKHAKRPDADLKTYFTDKKTHLYTLILNPDNSFEILVDQSVVNSGNLLNDMTPPVNPSREIEDPEDRKPEDWDERPKIADPDAVKPDDWDEDAPSKIPDEEATKPEGWLDDEPEYIPDPDAEKPEDWDEDMDGEWEAPQIANPKCESAPGCGVWQRPMIDNPNYKGKWKPPMIDNPNYQGIWKPRKIPNPDFFEDLEPFKMTPFSAIGLELWSMTSDIFFDNFIISGDRRVVDDWANDGWGLKKAADGAAEPGVVLQMLEAAEERPWLWVVYILTVALPVFLVILFCCSGKKQSNAMEYKKTDAPQPDVKDEEGKEEEKNKRDEEEEEEKLEEKQKSDAEEDGVTGSQDEEDSKPKAEEDEILNRSPRNRKPRRE
# B4: Lnpep (protein, UniProt Q8C129 1-1025, looked up)
# Leucyl-cystinyl aminopeptidase: MESFTNDRLQLPRNMIENSMFEEEPDVVDLAKEPCLHPLEPDEVEYEPRGSRLLVRGLGEHEMDEDEEDYESSAKLLGMSFMNRSSGLRNSAAGYRQSPDGTCSLPSARTLVICVFVIVVAVSVIMVIYLLPRCTFTKEGCHKTNQSAELIQPVATNGKVFPWAQIRLPTAIIPLCYELSLHPNLTSMTFRGSVTISLQALQDTRDIILHSTGHNISRVTFMSAVSSQEKQVEILEYPYHEQIAVVAPEPLLTGHNYTLKIEYSANISNSYYGFYGITYTDKSNEKKYFAATQFEPLAARSAFPCFDEPAFKATFIIKITRNEHHTALSNMPKKSSVPAEEGLIQDEFSESVKMSTYLVAFIVGEMRNLSQDVNGTLVSVYAVPEKIGQVHHALDTTIKLLEFYQTYFEIQYPLKKLDLVAIPDFEAGAMENWGLLTFREETLLYDNATSSVADRKLVTKIIAHELAHQWFGNLVTMQWWNDLWLNEGFATFMEYFSVEKIFKELNSYEDFLDARFKTMRKDSLNSSHPISSSVQSSEQIEEMFDSLSYFKGASLLLMLKSYLSEDVFRHAVILYLHNHSYAAIQSDDLWDSFNEVTDKTLDVKKMMKTWTLQKGFPLVTVQRKGTELLLQQERFFLRMQPESQPSDTSHLWHIPISYVTDGRNYSEYRSVSLLDKKSDVINLTEQVQWVKVNSNMTGYYIVHYAHDDWTALINQLKRNPYVLSDKDRANLINNIFELAGLGKVPLRMAFDLIDYLKNETHTAPITEALFQTNLIYNLLEKLGHMDLSSRLVARVHKLLQNQIQQQTWTDEGTPSMRELRSALLEFACAHSLENCTTMATNLFDSWMASNGTQSLPTDVMVTVFKVGARTEKGWLFLFSMYSSMGSEAEKNKILEALASSEDVHKLYWLMKSSLDGDIIRTQKLSLIIRTVGRHFPGHLLAWDFVKENWNKLVHKFHLGSYTIQSIVAGSTHLFSTKTHLSEVQAFFENQSEATLKLRCVQEALEVIQLNIQWMVRNLKTLSQWL
# B5: Wbp2 (protein, UniProt P97765 1-261, looked up)
# WW domain-binding protein 2: MALNKNHSEGGGVIVNNTESILMSYDHVELTFNDMKNVPEAFKGTKKGTVYLTPYRVIFLSKGKDAMQSFMMPFYLMKDCEIKQPVFGANFIKGIVKAEAGGGWEGSASYKLTFTAGGAIEFGQRMLQVASQASRGEVPNGAYGYPYMPSGAYVFPPPVANGMYPCPPGYPYPPPPPEFYPGPPMMDGAMGYVQPPPPPYPGPMEPPVSGPSAPATPAAEAKAAEAAASAYYNPGNPHNVYMPTSQPPPPPYYPPEDKKTQ
# B6: Serpinf1 (protein, UniProt P97298 20-417, looked up)
# Pigment epithelium-derived …: QNVPSSSEGSPVPDSTGEPVEEEDPFFKVPVNKLAAAVSNFGYDLYRLRSSASPTGNVLLSPLSVATALSALSLGAEHRTESVIHRALYYDLITNPDIHSTYKELLASVTAPEKNLKSASRIVFERKLRVKSSFVAPLEKSYGTRPRILTGNPRVDLQEINNWVQAQMKGKIARSTREMPSALSILLLGVAYFKGQWVTKFDSRKTTLQDFHLDEDRTVRVPMMSDPKAILRYGLDSDLNCKIAQLPLTGSMSIIFFLPLTVTQNLTMIEESLTSEFIHDIDRELKTIQAVLTVPKLKLSFEGELTKSLQDMKLQSLFESPDFSKITGKPVKLTQVEHRAAFEWNEEGAGSSPSPGLQPVRLTFPLDYHLNQPFLFVLRDTDTGALLFIGRILDPSST
# B7: Idua (protein, UniProt P35475 28-653, looked up)
# Alpha-L-iduronidase: APHLVHVDAARALWPLRRFWRSTGFCPPLPHSQADQYVLSWDQQLNLAYVGAVPHRGIKQVRTHWLLELVTTRGSTGRGLSYNFTHLDGYLDLLRENQLLPGFELMGSASGHFTDFEDKQQVFEWKDLVSSLARRYIGRYGLAHVSKWNFETWNEPDHHDFDNVSMTMQGFLNYYDACSEGLRAASPALRLGGPGDSFHTPPRSPLSWGLLRHCHDGTNFFTGEAGVRLDYISLHRKGARSSISILEQEKVVAQQIRQLFPKFADTPIYNDEADPLVGWSLPQPWRADVTYAAMVVKVIAQHQNLLLANTTSAFPYALLSNDNAFLSYHPHPFAQRTLTARFQVNNTRPPHVQLLRKPVLTAMGLLALLDEEQLWAEVSQAGTVLDSNHTVGVLASAHRPQGPADAWRAAVLIYASDDTRAHPNRSVAVTLRLRGVPPGPGLVYVTRYLDNGLCSPDGEWRRLGRPVFPTAEQFRRMRAAEDPVAAAPRPLPAGGRLTLRPALRLPSLLLVHVCARPEKPPGQVTRLRALPLTQGQLVLVWSDEHVGSKCLWTYEIQFSQDGKAYTPVSRKPSTFNLFVFSPDTGAVSGSYRVRALDYWARPGPFSDPVPYLEVPVPRGPPSPGNP
# System: DYT-TOR1A MEF EVs
# Test: Quantitative LC-MS/MS proteomics of EVs from drug-treated DYT-TOR1A MEF cultures (ritonavir, salubrinal)
# Type: cell-based, mouse
# Design: key to RTV Corrective Direction / RTV Corrective Direction, Grwd1 / RTV Corrective Direction, Srrm2 / RTV Corrective Direction, Rbm17 / RTV Corrective Direction, Dcaf8 / RTV Corrective Direction, Edil3 / RTV Corrective Direction, Timp3 / RTV Corrective Direction, Heatr3 / RTV Corrective Direction, Brd4 / RTV Corrective Direction, P3h4 / RTV Corrective Direction, Pacsin3 / RTV Corrective Direction, Naa50 / RTV Corrective Direction, Lpar6 / RTV Corrective Direction, Ndrg1 / RTV Corrective Direction, Kntc1 / RTV Corrective Direction, Cdk11b / RTV Corrective Direction, Sumo1 / RTV Corrective Direction, Lsm4 / RTV Corrective Direction, Hmga2 / RTV Corrective Direction, Cstf1 / RTV Corrective Direction, Tes / RTV Corrective Direction, Sbno1 / RTV Corrective Direction, Unc119b / RTV Corrective Direction, Cfdp1 / RTV Corrective Direction, Sec61b: YES = protein abundance effect opposite to DYT/WT
# Conditions: EV protein abundance, DYT + RTV (ritonavir) vs DYT, direction compared with DYT/WT
row,Molecule,RTV Corrective Direction
1,B1,YES
2,B2,YES

# Same assay, conditions: EV protein abundance, ritonavir (RTV)-treated DYT vs DYT
row,Molecule,DYT + RTV/DYT Cohen's d
1,B3,−0.16
2,B4,−0.39
3,B1,13.04
4,B5,−0.89
5,B6,1.47
6,B2,7.70
7,B7,−0.08

# System: WT MEF EVs
# Test: Quantitative LC-MS/MS proteomics of EVs from ISRIB-treated WT MEF cultures
# Type: cell-based, mouse
# Design: key to ISRIB and DYT Parallel Direction / ISRIB and DYT Parallel Direction, Ctdsp1 / ISRIB and DYT Parallel Direction, Pcdh19 / ISRIB and DYT Parallel Direction, Tspan7 / ISRIB and DYT Parallel Direction, Myo1e / ISRIB and DYT Parallel Direction, Plpp3 / ISRIB and DYT Parallel Direction, Sh3bp4 / ISRIB and DYT Parallel Direction, Dnajc7 / ISRIB and DYT Parallel Direction, Drg1 / ISRIB and DYT Parallel Direction, Maea: YES = protein abundance effect similar to DYT/WT
# Conditions: EV protein abundance, ISRIB-treated WT vs WT
row,Molecule,WT + ISRIB/WT Cohen's d
1,B3,0.64
2,B4,−1.24
3,B1,−3.39
4,B5,−1.50
5,B6,−1.83
6,B2,−1.51
7,B7,0.52

# Same assay, conditions: EV protein abundance, WT + ISRIB vs WT, direction compared with DYT/WT
row,Molecule,ISRIB and DYT Parallel Direction
1,B4,YES
2,B1,YES
3,B5,YES
4,B2,YES
